Results as given in PMC4851618, “Structural dynamics of a methionine γ-lyase for calicheamicin biosynthesis: Rotation of the conserved tyrosine stacking with pyridoxal phosphate” (Structural Dynamics, 2016).

Biological target: the molecule itself
Assay: crystal structure; sitting drop, 11 mg/ml protein with 1 mM PLP, 12% w/v PEG 20000, 0.1 M MES pH 6.5, 289 K; SAD, 2.10 Å, space group I222; quaternary assembly calculated by PISA

B1: CalE6, PLP-dependent methionine γ-lyase from Micromonospora echinospora (D7G variant, selenomethionine labeled) (enzyme, UniProt Q8KNG3 1-381, looked up)
chain: MSGMRFGTRLVHGGRRPSAGTGDVVPPIHVSTTYERRAQDEPRYFYGRGENPTREELEECLAGLERAPFATVFSSGQAAAATLLSLVRPGQCVVSTDDVYAGTDGLFDLAARQGVRVRYADLTTPEGIAAALAEPDLALVWIETPTNPLLTVVDVAEVSRRAHERGARVVVDNTFASPVLQQPLALGADVSLYSTTKSIAGHADVLGGALVYRDADLHAAVRAYRTTAGNVPGALDCFLVRRGLHTLSLRVHRQVATARVLVERLRASPVVGAVHYPGLPEHPQHAVVKAQMSAPGAIVSFDYLGGPAERLLDRFTLFTCGVSLGGVHSLVECPALMTHRPLSAEARARRGIGESLIRLSVGIEDPQDLAEDLSRALAGGT
modifications: selenomethionine in place of methionine; Lys 197 bound covalently to PLP (Schiff base, residue LLP 197)
notes: The printed fusion scheme (ENLYFQ/SNA-TARGET) leaves SNA before the protein after TEV cleavage; The forward primer begins the target with GTG (AGC GGT ATG CGC TTC GAC follow), so the first residue behind SNA may be Val, not Met; Crystallised with 1 mM PLP; also called CalE6-MES complex; CalE6 holoenzyme; source: E. coli BL21(DE3), selenomethionine labeled, purified (Ni-NTA, TEV cleavage, …)
stoichiometry N: 4
